Measured values published in paper PMC7058931, “DNA topoisomerase IIIβ promotes cyst generation by inducing cyst wall protein gene expression in Giardia lamblia”.

Key:
[1] = molecular target: T1, TOP3β (DNA topoisomerase IIIβ) (Giardia lamblia WB, UniProt A8B577 1-973); assay: EMSA; strong; EMSA: 0.02 pmol 32P probe, 5 ng protein, 20 µl, 0.5 µg poly(dI-dC), 15 min at room temperature, 6% acrylamide gel; buffer, salt and pH not given (cited reference); settings: protein: recombinant; tags: C-terminal V5 and His; label: 5'-32P
T1 sequence: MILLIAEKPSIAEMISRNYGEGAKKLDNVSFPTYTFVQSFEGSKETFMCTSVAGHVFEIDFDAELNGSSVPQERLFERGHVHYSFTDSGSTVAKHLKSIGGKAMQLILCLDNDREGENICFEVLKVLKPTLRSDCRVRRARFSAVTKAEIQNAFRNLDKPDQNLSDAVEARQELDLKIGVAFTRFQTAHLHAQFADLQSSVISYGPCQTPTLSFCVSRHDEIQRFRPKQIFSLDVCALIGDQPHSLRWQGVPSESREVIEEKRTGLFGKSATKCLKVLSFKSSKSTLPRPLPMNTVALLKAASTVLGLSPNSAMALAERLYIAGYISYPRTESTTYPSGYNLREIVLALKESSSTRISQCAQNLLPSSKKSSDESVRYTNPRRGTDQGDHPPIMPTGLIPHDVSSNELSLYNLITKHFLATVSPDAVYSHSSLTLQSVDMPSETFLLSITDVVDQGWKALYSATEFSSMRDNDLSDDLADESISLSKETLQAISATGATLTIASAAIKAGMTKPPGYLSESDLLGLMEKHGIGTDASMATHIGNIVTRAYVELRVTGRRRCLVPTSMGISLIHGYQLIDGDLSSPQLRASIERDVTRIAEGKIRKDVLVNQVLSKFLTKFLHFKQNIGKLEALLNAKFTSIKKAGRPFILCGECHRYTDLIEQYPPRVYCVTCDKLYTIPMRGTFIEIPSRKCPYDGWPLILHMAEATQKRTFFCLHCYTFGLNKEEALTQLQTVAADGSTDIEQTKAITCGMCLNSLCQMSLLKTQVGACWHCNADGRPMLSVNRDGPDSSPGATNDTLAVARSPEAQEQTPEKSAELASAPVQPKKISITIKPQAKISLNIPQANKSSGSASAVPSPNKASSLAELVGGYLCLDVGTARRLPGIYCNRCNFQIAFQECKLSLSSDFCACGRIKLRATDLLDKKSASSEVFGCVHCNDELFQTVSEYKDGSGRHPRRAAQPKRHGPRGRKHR

[2] = molecular target: T1, TOP3β (DNA topoisomerase IIIβ); assay: EMSA; EMSA: 0.02 pmol 32P probe, 5 ng protein, 20 µl, 0.5 µg poly(dI-dC), 15 min at room temperature, 6% acrylamide gel; buffer, salt and pH not given (cited reference); settings: protein: recombinant, tags: C-terminal V5 and His
[3] = molecular target: T1, TOP3β (DNA topoisomerase IIIβ); assay: EMSA; supershifted by anti-TOP3β; EMSA: 0.02 pmol 32P probe, 5 ng protein, 20 µl, 0.5 µg poly(dI-dC), 15 min at room temperature, 6% acrylamide gel; buffer, salt and pH not given (cited reference); settings: protein: recombinant, tags: C-terminal V5 and His

B1: cwp2-60/-31 (dsDNA)
DNA 1: TAGACTGATGCTGTAGAGGTCAACAGATAA
DNA 2: TTATCTGTTGACCTCTACAGCATCAGTCTA
binding result [1]: binds

B2: 18S-60/-31 (dsDNA)
DNA 1: CCGTGCCAGGCGGCGGCCCCCGCGCAGGGA
DNA 2: TCCCTGCGCGGGGGCCGCCGCCTGGCACGG
binding result ([2]; label: 5'-32P): no binding

B3: cwp1-45/-1 (dsDNA)
DNA 1: GTTTACAACTCTCAGATCAAGAAACACAGAAATAAAATATCAGGG
DNA 2: CCCTGATATTTTATTTCTGTGTTTCTTGATCTGAGAGTTGTAAAC
binding result ([3]; label: 5'-32P): binds

GTTTACAACTCTCAGATCAAGAAACACAGAAATAAAATATCAGGG (ssDNA) [cwp1-45/-1F]
binding result ([2]; label: 32P): binds

B4: 18S-30/-1 (dsDNA)
DNA 1: GGCGCCCGGCCCGCGGCGCCCGCGCCCGGC
DNA 2: GCCGGGCGCGGGCGCCGCGGGCCGGGCGCC
binding result ([2]; label: 5'-32P): no binding

CTGGCTAACAGTCTACAGTCTACAATTTACAGTATACAATCTACA (ssDNA) [cwp1-90/-46F]
binding result ([2]; label: 32P): binds

B5: cwp1-90/-46 (dsDNA)
DNA 1: CTGGCTAACAGTCTACAGTCTACAATTTACAGTATACAATCTACA
DNA 2: TGTAGATTGTATACTGTAAATTGTAGACTGTAGACTGTTAGCCAG
binding result ([2]; label: 5'-32P): binds

GTCTTTCCCAAAAAATAAGTTACTACTGATATGTTTTCTC (ssDNA) [cwp3-30/+10F]
binding result ([3]; label: 32P): binds

B6: cwp3-30/+10 (dsDNA)
DNA 1: GTCTTTCCCAAAAAATAAGTTACTACTGATATGTTTTCTC
DNA 2: GAGAAAACATATCAGTAGTAACTTATTTTTTGGGAAAGAC
binding result [1]: binds

GGCGCCCGGCCCGCGGCGCCCGCGCCCGGC (ssDNA) [18S-30/-1F]
binding result ([2]; label: 32P): no binding

B7: ran-51/-20 (dsDNA)
DNA 1: TAAAATAAATTAAATCGAAATTAAAACTTTAA
DNA 2: TTAAAGTTTTAATTTCGATTTAATTTATTTTA
binding result ([2]; label: 5'-32P): binds

TAGACTGATGCTGTAGAGGTCAACAGATAA (ssDNA) [cwp2-60/-31F]
binding result ([2]; label: 32P): binds
